Experimental data published in patent publication US20230331817A1 (The Regents of the University of California, priority 2020, published 2023).

Experiments:
[1] = system: primary human dermal skin fibroblasts; assay: Resazurin reduction (alamarBlue) viability assay, skin fibroblasts; assay type: cell-based
Method: (§1) Resazurin reduction assay (Fisher Scientific) was used to evaluate the potential cytotoxicity of antifibrinolytic agents toward primary human endothelial cells and skin fibroblasts. Phosphate buffer that was used to dissolve the samples was included as negative control. The assay is based on reduction of the non-fluorescent dye resazurin, to the highly fluorescent resorufin by viable cells. […] Briefly, cells in 96-well cell culture plates were treated with different concentrations of antifibrinolytic compounds (as described above). After 24 hours resazurin reagent was added to each well and the plates were incubated at 37° C. for 4 hours. Fluorescence was measured by the FLUOstar Omega Microplate Reader (BMG Labtech) using an excitation wavelength of 544 nm and an emission wavelength of 590 nm. Each assay was done in duplicate, with three replicates each. The viability was evaluated based on comparison with untreated cells.

[2] = system: plasmin induced lysis of clot formed in whole blood; assay: Thromboelastography, plasmin induced clot lysis in whole blood; assay type: biochemical, human; details: for G / LY30 / LY60 / MA: NHB + […] plasmin
Method: Plasmin and CaCl2) were added last to initiate simultaneous clotting and fibrinolysis. […] The thromboelastograph was calibrated each day and each inhibitor concentration was tested in duplicate. TEG Analytical Software (version 4.2.2; Haemonetics Corporation, Braintree, MA) was used to calculate the time to clot initiation (R), maximal clot strength (maximal amplitude (MA), which was directly related to the shear elastic modulus strength, G), and percent lysis 60 minutes after MA (LY60) (42).

[3] = system: HUVEC; assay type: cell-based, human
Method: as §1

[4] = system: primary human dermal skin fibroblasts; details: 24 hours; 30 μM KD1TM, 30 μM BPTI, 60 mM EACA, 30 mM TXA
Source text: (§2) Primary human pooled umbilical vein endothelial cells (HUVEC) were obtained from ATCC. The cells were maintained in Vascular Cell Basal Medium (ATCC), supplemented with the Endothelial Cell Growth Kit-BBE (ATCC) and Penicillin-Streptomycin-Amphotericin B (ATCC). Primary human dermal skin fibroblasts were obtained from LONZA and maintained in Fibroblast Basal Medium (FBMTM, LONZA), supplemented with a cocktail of growth factors, fetal bovine serum and antibiotics (FGMTM-2 SingleQuots™, LONZA). All cells were maintained in a humidified 5% C02 atmosphere at 37° C. and were passaged once they reached 80% confluence. All experiments were performed with cells in the logarithmic growth phase.
(§3) For toxicity studies, cells were seeded into 96-well or 24-well cell culture plates at 3,500 cells/cm2 and were used for experiments once they reached 80% confluence.
(§4) Cell toxicity and cell death was evaluated with the CellTox™ Green Cytotoxicity Assay (Promega). This assay measures changes in membrane integrity that occur as a result of cell death. The dye used in the system is excluded from viable cells but binds to DNA in compromised cells, which results in a fluorescent signal. We measured cell death in HUVEC and primary fibroblasts treated with antifibrinolytic agents at 4 concentrations (as indicated above) with triplicates per concentration in 24-well plates after 24 hours of exposure. Hoechst (Thermo Fisher Scientific) was used to stain all nuclei. Images of cells were captured using an inverted microscope (Nicon; Edipse T2000 TE). Green fluorescent cells (FITC filter) and Hoechst stained cells (DAPI filter) were counted using Image J software.

[5] = system: HUVEC; details: 24 hours; 30 μM KD1TM, 30 μM BPTI, 60 mM EACA, 30 mM TXA
Source text: as §2, §3, §4

[6] = human, in vivo; cited from earlier work
[7] = biological target: T1, human plasmin (human, UniProt P00747 97-810); assay: cell-based or functional assay
[8] = biological target: T1, human plasmin; assay: residual activity of 3 nM plasmin (percent fractional activity by the legend; the axis is labelled % Pm Inhibition), substrate S-2251 [A]
[9] = biological target: T1, human plasmin; assay: amidolytic inhibition of 3 nM plasmin, tight-binding equation
Method: (§5) All reactions were carried out in TBS, pH 7.5 (50 mM Tris-HCL, pH 7.5, containing 100 mM NaCl), containing 0.1 mg bovine serum albumin/ml (TBS/BSA) and 2 mM Ca2+(TBS/BSA/Ca2+, pH 7.5). […] The inhibition constant, K* was determined using the nonlinear regression data analysis program Grafit.

[10] = biological target: T2, FVIIa/sTF (Homo sapiens, UniProt P08709); assay: Protease inhibition assay, FVIIa/soluble tissue factor; assay type: biochemical; details: 20 nM FVIIa/sTF; read-out: Ki for Factor VIIa/soluble tissue factor
T2 construct: human factor VIIa (FVIIa) was prepared as described previously (34)
Method: as §5
(§6) Ki values were obtained by correcting for the effect of substrate according to Beith (38), using equation 2, where (S) is substrate concentration and KM is specific for each enzyme.

[11] = biological target: T3, Plasma kallikrein (pKLK) (Homo sapiens, UniProt P03952); assay: Protease inhibition assay, plasma kallikrein; assay type: biochemical; details: 1 nM kallikrein
T3 construct: Plasma kallikrein (pKLK) was from Enzyme Research Laboratories; purchased Enzyme Research Laboratories (South Bend, IN)
Method: as §5, §6

[12] = biological target: T4, FXa (Homo sapiens, UniProt P00742); assay: Protease inhibition assay, factor Xa; assay type: biochemical; details: 1 nM FXa
T4 construct: FXa, factor Xa
Method: FIG. 2. Data from Equilibrium inhibition constants (Ki) of KD1Y11T/R15KL17R-KT with plasmin, FXIa, kallikrein (KLK), FVIIa/sTF and FXa. Percent activity of 3 nM human plasmin remaining in the presence of various concentrations (0.05 to 19.2 nM) of KD1Y11T/R15KL17R-KT (●) or BPTI (◯). And percent activity of 1 nM human FXIa (▴), 1 nM human kallikrein (●), 20 nM human FVIIa/sTF (Δ) and 1 nM FXa (♦) remaining in the presence of various concentrations (1 μM to 30 μM) of KD1Y11T/R15KL17R-KT.
Ki values for each inhibitor were calculated using the tight binding equations.

[13] = biological target: T5, human FXIa (Homo sapiens, UniProt P03951); assay: Protease inhibition assay, factor XIa; assay type: biochemical; details: 1 nM FXIa
T5 construct: Purified human FXIa, thrombin (IIa) and plasmin were purchased; purchased Hematologic Technologies Inc (Essex Junction, VT)
Method: as §5, §6

[14] = biological target: T1, human plasmin; assay: protease amidolytic inhibition, tight-binding equation
[15] = system: tPA-induced plasma clot fibrinolysis; assay: Fibrinolysis (clot lysis) assay in normal pooled plasma; assay type: biochemical; details: human NPP
Method: The method of Sperzel and Huetter (40) was followed with minor modifications as outlined earlier (32,41). Briefly, IIa was used to initiate fibrin formation in NPP and the lysis of the formed clot (fibrinolysis) was induced by simultaneous addition of tPA. Clot formation and lysis were monitored with a Molecular Devices microplate reader (SPECTRAmax 190) measuring the optical density at 405 nm. […] Two hundred twenty-five μL of this mixture was then added to 25 μL IIa and tPA in TBS/BSA containing 25 mM CaCl2). In the 250 μL final volume, concentration of IIa was 0.15 μg/ml and that of tPA was 1 μg/ml. Under control conditions (zero tPA and zero test compound), OD405 increased immediately indicating clotting followed by an extremely slow decrease representing fibrinolysis. As clotting was almost complete after 5 minutes, fibrinolysis induced by tPA was evaluated as a relative decrease of OD405 up to 60 minutes.
Addition of thrombin (IIa) to human normal pooled plasma (NPP) caused fibrin formation, which is reflected by the increase in OD405 (black curve, FIGS. 3A and 3B). Simultaneous addition of tPA caused initial clot formation followed by dissolution of fibrin induced by tPA-mediated conversion of plasminogen to plasmin (black curve with closed circles, FIGS. 3A and 3B); the midpoint of fibrinolysis was ˜8 min in each case. Both antifibrinolytic agents inhibited fibrinolysis in a dose-dependent manner.

T1 sequence (P00747 97-810 limits assumed): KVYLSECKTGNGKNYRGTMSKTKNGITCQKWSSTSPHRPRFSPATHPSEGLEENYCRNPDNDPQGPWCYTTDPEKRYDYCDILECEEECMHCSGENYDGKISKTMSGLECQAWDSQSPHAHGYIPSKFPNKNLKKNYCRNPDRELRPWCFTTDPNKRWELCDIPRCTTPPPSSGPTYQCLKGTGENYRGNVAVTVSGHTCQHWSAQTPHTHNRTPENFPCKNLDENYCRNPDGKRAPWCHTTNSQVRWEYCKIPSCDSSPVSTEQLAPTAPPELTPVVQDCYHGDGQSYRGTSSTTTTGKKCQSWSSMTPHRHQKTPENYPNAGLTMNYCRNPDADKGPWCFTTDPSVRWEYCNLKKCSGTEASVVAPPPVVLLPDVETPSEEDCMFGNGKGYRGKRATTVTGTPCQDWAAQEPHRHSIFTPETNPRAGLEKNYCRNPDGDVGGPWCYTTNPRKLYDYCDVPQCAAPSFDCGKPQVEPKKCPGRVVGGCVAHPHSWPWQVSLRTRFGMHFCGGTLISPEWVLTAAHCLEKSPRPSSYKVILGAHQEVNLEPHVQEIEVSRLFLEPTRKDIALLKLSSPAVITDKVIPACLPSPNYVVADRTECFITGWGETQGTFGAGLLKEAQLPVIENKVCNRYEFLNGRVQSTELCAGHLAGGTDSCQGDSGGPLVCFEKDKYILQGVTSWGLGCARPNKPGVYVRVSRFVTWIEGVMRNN
T4 sequence (P00742 235-488 limits assumed): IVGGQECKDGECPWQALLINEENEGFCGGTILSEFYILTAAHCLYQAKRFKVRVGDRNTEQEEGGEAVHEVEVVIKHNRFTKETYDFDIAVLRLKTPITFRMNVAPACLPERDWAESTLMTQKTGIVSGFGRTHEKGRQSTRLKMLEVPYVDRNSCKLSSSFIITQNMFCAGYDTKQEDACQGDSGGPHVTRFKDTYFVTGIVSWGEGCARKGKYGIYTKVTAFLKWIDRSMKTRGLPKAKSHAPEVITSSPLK
T4 sequence (P00742 41-179 limits assumed): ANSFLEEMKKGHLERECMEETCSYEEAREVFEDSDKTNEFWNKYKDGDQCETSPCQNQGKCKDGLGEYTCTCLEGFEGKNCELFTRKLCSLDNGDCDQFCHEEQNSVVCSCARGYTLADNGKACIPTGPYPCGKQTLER
T2 sequence (P08709 213-466 limits assumed): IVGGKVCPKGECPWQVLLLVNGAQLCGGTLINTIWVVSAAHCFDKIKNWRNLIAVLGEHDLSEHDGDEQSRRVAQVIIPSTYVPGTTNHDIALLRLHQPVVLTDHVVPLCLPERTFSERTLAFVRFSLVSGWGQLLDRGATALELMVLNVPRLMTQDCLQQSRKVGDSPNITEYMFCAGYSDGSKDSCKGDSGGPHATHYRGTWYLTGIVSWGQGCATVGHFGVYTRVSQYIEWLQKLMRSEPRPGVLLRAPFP
T2 sequence (P08709 61-212 limits assumed): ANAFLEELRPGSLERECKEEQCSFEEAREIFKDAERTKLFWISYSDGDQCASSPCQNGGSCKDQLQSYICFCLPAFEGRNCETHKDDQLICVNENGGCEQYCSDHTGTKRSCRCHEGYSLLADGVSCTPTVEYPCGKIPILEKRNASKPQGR
T2 sequence (P13726 33-251 partner limits assumed): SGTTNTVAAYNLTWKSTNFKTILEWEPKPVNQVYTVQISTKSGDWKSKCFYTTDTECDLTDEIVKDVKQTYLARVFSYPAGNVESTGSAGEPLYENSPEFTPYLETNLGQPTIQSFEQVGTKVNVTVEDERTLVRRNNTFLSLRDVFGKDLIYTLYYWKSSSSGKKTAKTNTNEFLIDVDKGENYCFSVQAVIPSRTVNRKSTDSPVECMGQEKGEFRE
T3 sequence (P03952 20-390 limits assumed): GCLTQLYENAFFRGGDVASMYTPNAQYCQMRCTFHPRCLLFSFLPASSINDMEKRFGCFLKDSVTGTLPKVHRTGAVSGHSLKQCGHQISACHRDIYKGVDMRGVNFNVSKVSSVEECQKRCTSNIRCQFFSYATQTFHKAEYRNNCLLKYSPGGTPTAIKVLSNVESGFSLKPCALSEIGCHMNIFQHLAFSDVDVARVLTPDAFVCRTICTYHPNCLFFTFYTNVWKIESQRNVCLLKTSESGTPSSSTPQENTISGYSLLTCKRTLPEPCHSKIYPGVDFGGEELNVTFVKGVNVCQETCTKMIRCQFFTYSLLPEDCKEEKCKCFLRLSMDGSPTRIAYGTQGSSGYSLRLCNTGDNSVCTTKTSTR
T3 sequence (P03952 391-638 limits assumed): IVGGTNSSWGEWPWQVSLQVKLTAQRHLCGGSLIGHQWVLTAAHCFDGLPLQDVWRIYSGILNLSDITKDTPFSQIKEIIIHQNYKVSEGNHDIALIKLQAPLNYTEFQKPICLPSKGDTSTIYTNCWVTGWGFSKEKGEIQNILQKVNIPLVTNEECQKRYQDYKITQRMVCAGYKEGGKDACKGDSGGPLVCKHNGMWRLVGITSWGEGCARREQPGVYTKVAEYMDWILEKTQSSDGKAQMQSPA
T5 sequence (P03951 19-387 limits assumed): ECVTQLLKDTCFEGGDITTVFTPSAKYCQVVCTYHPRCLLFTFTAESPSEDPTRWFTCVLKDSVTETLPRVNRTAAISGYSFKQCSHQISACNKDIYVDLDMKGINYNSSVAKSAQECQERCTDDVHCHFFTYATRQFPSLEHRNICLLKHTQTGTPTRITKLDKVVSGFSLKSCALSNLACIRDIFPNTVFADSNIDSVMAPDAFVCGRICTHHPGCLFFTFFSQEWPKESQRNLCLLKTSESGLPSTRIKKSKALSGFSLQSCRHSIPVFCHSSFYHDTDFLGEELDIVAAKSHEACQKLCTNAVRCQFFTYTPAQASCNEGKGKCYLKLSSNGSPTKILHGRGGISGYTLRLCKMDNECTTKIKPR
T5 sequence (P03951 388-625 limits assumed): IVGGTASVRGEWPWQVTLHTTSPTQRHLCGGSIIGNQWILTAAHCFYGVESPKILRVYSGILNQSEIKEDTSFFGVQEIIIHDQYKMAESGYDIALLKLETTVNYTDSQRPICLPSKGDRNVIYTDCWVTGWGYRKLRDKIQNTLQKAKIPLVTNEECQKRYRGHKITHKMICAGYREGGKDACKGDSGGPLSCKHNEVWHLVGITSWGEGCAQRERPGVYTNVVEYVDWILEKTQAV

## NCCCCCC(=O)O [EACA, ε-aminocaproic acid]
[1]
  Fibroblast cell viability (FIG. 5): not significantly different from the untreated cells
[2]
  G: 2388.0 ± 49.6 dyn/cm^2
[2]; inhibitor 200 μM
  G: 153.25 ± 9.8 dyn/cm^2
  LY30: 0%
  LY60: 0%
  MA: 3.20 ± 0.71 mm
[2]; inhibitor 500 μM
  G: 747.75 ± 14.8 dyn/cm^2
  LY30: 0%
  LY60: 0%
  MA: 13.15 ± 0.64 mm
[2]; inhibitor 1000 μM
  G: 1070.1 ± 35.0 dyn/cm^2
  LY30: 0%
  LY60: 16.8 ± 0.35%
  MA: 16.40 ± 0.28 mm
[2]; inhibitor 3000 μM
  LY30: 0%
  LY60: 0.6 ± 0.04%
  MA: 32.60 ± 0.71 mm
[2]; […] plasmin, 3 mM EACA
  G restored, relative to blood without plasmin: ~50%
  MA restored, relative to blood without plasmin: ~67%
[3]
  HUVEC viability (FIG. 4): not significantly different from the untreated cells
[4]
  Fibroblasts cytotoxicity, CellTox green (FIG. 8): significant toxicity
[5]
  HUVEC cytotoxicity, CellTox green (FIG. 7): only observed in skin fibroblasts

## Ecallantide
[6]
  half-life: ~2 h

B1: KD1-WT (other)
chain: DAAQEPTGNNAEICLLPLDYGPCRALLLRYYYDRYTQSCRQFLYGGCEGNANNFYTWEACDDACWRIEKVPKV
notes: also called Wild-type KD1; E. coli expressed KD1-WT (IIa cleavage site); not shown: N-terminal residues left from the IIa (thrombin) cleavage site
[7]
  TEG G, 1 µM inhibitor, whole blood + 1.5 µM plasmin: 79 dyn/cm^2
  TEG G, 2 µM inhibitor, whole blood + 1.5 µM plasmin: 108 dyn/cm^2
  TEG G, 3 µM inhibitor, whole blood + 1.5 µM plasmin: 180 dyn/cm^2
  TEG G, 5 µM inhibitor, whole blood + 1.5 µM plasmin: 818 dyn/cm^2
  TEG G, 7.5 µM inhibitor, whole blood + 1.5 µM plasmin: 820 dyn/cm^2
  TEG LY30, 1 µM inhibitor, whole blood + 1.5 µM plasmin: 100%
  TEG LY30, 2 µM inhibitor, whole blood + 1.5 µM plasmin: 100%
  TEG LY30, 3 µM inhibitor, whole blood + 1.5 µM plasmin: 100%
  TEG LY30, 5 µM inhibitor, whole blood + 1.5 µM plasmin: 6.5%
  TEG LY30, 7.5 µM inhibitor, whole blood + 1.5 µM plasmin: 0%
  TEG LY60, 1 µM inhibitor, whole blood + 1.5 µM plasmin: 100%
  TEG LY60, 2 µM inhibitor, whole blood + 1.5 µM plasmin: 100%
  TEG LY60, 3 µM inhibitor, whole blood + 1.5 µM plasmin: 100%
  TEG LY60, 5 µM inhibitor, whole blood + 1.5 µM plasmin: 22.4%
  TEG LY60, 7.5 µM inhibitor, whole blood + 1.5 µM plasmin: 0%
  TEG MA, 1 µM inhibitor, whole blood + 1.5 µM plasmin: 1.45 mm
  TEG MA, 2 µM inhibitor, whole blood + 1.5 µM plasmin: 2.23 mm
  TEG MA, 3 µM inhibitor, whole blood + 1.5 µM plasmin: 3.49 mm
  TEG MA, 5 µM inhibitor, whole blood + 1.5 µM plasmin: 13.9 mm
  TEG MA, 7.5 µM inhibitor, whole blood + 1.5 µM plasmin: 11.7 mm
[8]
  IC50 (read off the curve): ~9 nM
[9]
  Ki: 6 nM

B2: KD1-L17R-KT (designed binder)
chain: MGSSHHHHHHSSGHIDDDDKNAEICLLPLDYGPCRARLLRYYYDRYTQSCRQFLYGGCEGNANNFYTWEACDDACWRIEK
notes: also called KD1SM; single mutant
[10]
  Ki: > 3000 nM
[7]
  TEG G, 1 µM inhibitor, whole blood + 1.5 µM plasmin: 329 dyn/cm^2
  TEG G, 2 µM inhibitor, whole blood + 1.5 µM plasmin: 599 dyn/cm^2
  TEG G, 3 µM inhibitor, whole blood + 1.5 µM plasmin: 683 dyn/cm^2
  TEG G, 5 µM inhibitor, whole blood + 1.5 µM plasmin: 2320 dyn/cm^2
  TEG G, 7.5 µM inhibitor, whole blood + 1.5 µM plasmin: 2530 dyn/cm^2
  TEG LY30, 1 µM inhibitor, whole blood + 1.5 µM plasmin: 10.1%
  TEG LY30, 2 µM inhibitor, whole blood + 1.5 µM plasmin: 0%
  TEG LY30, 3 µM inhibitor, whole blood + 1.5 µM plasmin: 0%
  TEG LY30, 5 µM inhibitor, whole blood + 1.5 µM plasmin: 0%
  TEG LY30, 7.5 µM inhibitor, whole blood + 1.5 µM plasmin: 0%
  TEG LY60, 1 µM inhibitor, whole blood + 1.5 µM plasmin: 28.4%
  TEG LY60, 2 µM inhibitor, whole blood + 1.5 µM plasmin: 4.95%
  TEG LY60, 3 µM inhibitor, whole blood + 1.5 µM plasmin: 19.9%
  TEG LY60, 5 µM inhibitor, whole blood + 1.5 µM plasmin: 12.3%
  TEG LY60, 7.5 µM inhibitor, whole blood + 1.5 µM plasmin: 5%
  TEG MA, 1 µM inhibitor, whole blood + 1.5 µM plasmin: 6.45 mm
  TEG MA, 2 µM inhibitor, whole blood + 1.5 µM plasmin: 11.8 mm
  TEG MA, 3 µM inhibitor, whole blood + 1.5 µM plasmin: 12.3 mm
  TEG MA, 5 µM inhibitor, whole blood + 1.5 µM plasmin: 31.4 mm
  TEG MA, 7.5 µM inhibitor, whole blood + 1.5 µM plasmin: 33.9 mm
[8]
  IC50 (read off the curve): ~3 nM
[11]
  Ki: > 3000 nM
[9]
  Ki: 0.9 nM
[12]
  Ki: > 3000 nM
[13]
  Ki: > 3000 nM
[14]
  Ki: 0.9 nM
[15]; 0.5 μM inhibitor + tPA
  Max OD405: 1.48 ± 0.11
  OD405 at 60 min: 0.85 ± 0.14
[15]; 0.5 μM inhibitor + tPA, 7 ± 1 without inhibitor
  Fibrinolysis midpoint time: 10 ± 0.76 min
[15]; 1.0 μM inhibitor + tPA
  Fibrinolysis midpoint time: 13 ± 0.5 min
  Max OD405: 1.56 ± 0.10
  OD405 at 60 min: 0.87 ± 0.11
[15]; 3.0 μM inhibitor + tPA
  Fibrinolysis midpoint time: 31 ± 1.75 min
  Max OD405: 1.74 ± 0.05
  OD405 at 60 min: 0.80 ± 0.13
[15]; 4.0 μM inhibitor + tPA
  Fibrinolysis midpoint time: 43 ± 1^ minutes
  Max OD405: 1.62 ± 0.11
  OD405 at 60 min: 0.92 ± 0.05
[15]; 5.0 μM inhibitor + tPA
  Fibrinolysis midpoint time: 55 ± 1.5 min
  Max OD405: 1.69 ± 0.08
  OD405 at 60 min: 1.13 ± 0.06

B3: KD1-Y11T/L17R-KT (E. Coli) (designed binder)
chain: MGSSHHHHHHSSGHIDDDDKNAEICLLPLDTGPCRARLLRYYYDRYTQSCRQFLYGGCEGNANNFYTWEACDDACWRIEK
notes: also called KD1DM; E. coli expressed KD1-Y11T/L17R-KT
[8]
  IC50 (read off the curve): 2 to 3 nM
[9]
  Ki: 0.59 nM
